B1: OAS1 (parent)
chain: TPAKSLDKFIEDYLLPDTCFRMQI

Variants of: B1
Experiment: protein stability index of a GFP-peptide fusion (GPS, HEK-293T) (PSI 1-6); higher = more stable
Conditions: c terminus: a fixed tail appended
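Note: lentivirally expressed fusions sorted by FACS into six bins by GFP to DsRed ratio, PSI derived from sequencing read proportions per bin multiplied by bin number.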

Variant | protein stability index
TPAKSLDKFIEDYLLPDTCFRMPI [Q23P] | 1.99
TPAKSLDKFIEDYLLPDTCFRMFI [Q23F] | 2.13
TPAKSLDKFIEDYLLPDTCFRMAI [Q23A] | 3.37
TPAKSLDKFIEDYLLPDTCFRMVI [Q23V] | 2.56
TPAKSLDKFIEDYLLPDTCFRMLI [Q23L] | 3.03
TPAKSLDKFIEDYLLPDTCFRMTI [Q23T] | 2.48
TPAKSLDKFIEDYLLPDTCFRMMI [Q23M] | 3.2
TPAKSLDKFIEDYLLPDTCFRMII [Q23I] | 2.22
TPAKSLDKFIEDYLLPDTCFRMEI [Q23E] | 2.6
TPAKSLDKFIEDYLLPDTCFRMGI [Q23G] | 3.25
TPAKSLDKFIEDYLLPDTCFRMSI [Q23S] | 5.04
TPAKSLDKFIEDYLLPDTCFRMKI [Q23K] | 1.54
TPAKSLDKFIEDYLLPDTCFRMNI [Q23N] | 1.42
TPAKSLDKFIEDYLLPDTCFRMYI [Q23Y] | 3.27
TPAKSLDKFIEDYLLPDTCFRMHI [Q23H] | 3.27
TPAKSLDKFIEDYLLPDTCFRMCI [Q23C] | 3.21
TPAKSLDKFIEDYLLPDTCFRMWI [Q23W] | 3.07
TPAKSLDKFIEDYLLPDTCFRMDI [Q23D] | 2.73
TPAKSLDKFIEDYLLPDTCFRMRI [Q23R] | 3.21
TPAKSLDKFIEDYLLPDTCFRMQW [I24W] | 2.39

Variant | protein stability index
TPAKSLDKFIEDYLLPDTCFRMQV [I24V] | 2
TPAKSLDKFIEDYLLPDTCFRMQS [I24S] | 1.84
TPAKSLDKFIEDYLLPDTCFRMQD [I24D] | 2.47
TPAKSLDKFIEDYLLPDTCFRMQF [I24F] | 2.76
TPAKSLDKFIEDYLLPDTCFRMQT [I24T] | 1.46
TPAKSLDKFIEDYLLPDTCFRMQK [I24K] | 1.99
TPAKSLDKFIEDYLLPDTCFRMQN [I24N] | 1.76
TPAKSLDKFIEDYLLPDTCFRMQC [I24C] | 2.23
TPAKSLDKFIEDYLLPDTCFRMQE [I24E] | 1.85
TPAKSLDKFIEDYLLPDTCFRMQQ [I24Q] | 1.67
TPAKSLDKFIEDYLLPDTCFRMQY [I24Y] | 1.56
TPAKSLDKFIEDYLLPDTCFRMQP [I24P] | 2.12
TPAKSLDKFIEDYLLPDTCFRMQL [I24L] | 2.15
TPAKSLDKFIEDYLLPDTCFRMQG [I24G] | 1.55
TPAKSLDKFIEDYLLPDTCFRMQA [I24A] | 1.74
TPAKSLDKFIEDYLLPDTCFRMQR [I24R] | 2.43
TPAKSLDKFIEDYLLPDTCFRMQH [I24H] | 2.22
TPAKSLDKFIEDYLLPDTCFRMQM [I24M] | 1.7
TPAKSLDKFIEDYLLPDTCFYMQI [R21Y] | 2.44
TPAKSLDKFIEDYLLPDTCFRSQI [M22S] | 1.64

Variant | protein stability index
TPAKSLDKFIEDYLLPDTCFRVQI [M22V] | 2.23
TPAKSLDKFIEDYLLPDTCFRIQI [M22I] | 3.42
TPAKSLDKFIEDYLLPDTCFRYQI [M22Y] | 2.9
TPAKSLDKFIEDYLLPDTCFREQI [M22E] | 2.23
TPAKSLDKFIEDYLLPDTCFRLQI [M22L] | 2.39
TPAKSLDKFIEDYLLPDTCFRQQI [M22Q] | 1.5
TPAKSLDKFIEDYLLPDTCFRGQI [M22G] | 2.51
TPAKSLDKFIEDYLLPDTCFRRQI [M22R] | 1.94
TPAKSLDKFIEDYLLPDTCFRWQI [M22W] | 2.45
TPAKSLDKFIEDYLLPDTCFRDQI [M22D] | 2.1
TPAKSLDKFIEDYLLPDTCFRNQI [M22N] | 1.99
TPAKSLDKFIEDYLLPDTCFRHQI [M22H] | 2.28
TPAKSLDKFIEDYLLPDTCFRPQI [M22P] | 2.03
TPAKSLDKFIEDYLLPDTCFRTQI [M22T] | 2.21
TPAKSLDKFIEDYLLPDTCFRKQI [M22K] | 1.98
TPAKSLDKFIEDYLLPDTCFRFQI [M22F] | 1.35
TPAKSLDKFIEDYLLPDTCFRAQI [M22A] | 1.93
TPAKSLDKFIEDYLLPDTCFRCQI [M22C] | 2.94

— the supplement of paper PMC10567573
